Here are results for 1 substance from patent publication US20150246959A1.

The target in the test is MART-1 presented by HLA-A*0201 on 624 mel-CIITA cells (human). The test can be described thus: cell-based or functional assay.

F5 (anti-MART-1) TCR: the IFN-gamma (pg/ml); Donor 1; 624-CIITA is 1480 pg/mL and the IFN-gamma (pg/ml); Donor 2; 624-CIITA is 1440 pg/mL.
